We go through one molecule from patent publication US20220339099A1 (published 2022).

The target in the experiment is T1, human IL-1 type 1 receptor (IL-1R1) (human, UniProt P14778 18-336, limits assumed).
T1 construct: SPR reagent; also called IL-1RI; interleukin-1 type I receptor
T1 sequence (looked up): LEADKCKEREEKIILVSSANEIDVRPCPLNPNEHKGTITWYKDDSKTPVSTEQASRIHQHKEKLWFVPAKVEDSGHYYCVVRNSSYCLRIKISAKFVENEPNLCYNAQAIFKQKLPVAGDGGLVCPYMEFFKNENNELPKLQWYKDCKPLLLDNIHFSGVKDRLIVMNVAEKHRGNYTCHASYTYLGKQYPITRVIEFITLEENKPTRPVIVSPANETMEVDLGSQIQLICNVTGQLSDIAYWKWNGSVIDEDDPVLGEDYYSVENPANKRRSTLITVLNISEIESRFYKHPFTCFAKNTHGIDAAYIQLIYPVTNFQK
Nature of the experiment: surface plasmon resonance. Background: Surface plasmon resonance follows binding to a sensor surface in real time, without labels.

B1: rhIL-1α (recombinant human interleukin-1 alpha) (ligand, UniProt P01583 113-271, looked up)
chain: SAPFSFLSNVKYNFMRIIKYEFILNDALNQSIIRANDQYLTAAALHNLDEAVKFDMGAYKSSKDDAKITVILRISKTQLYVTAQDEDQPVLLKEMPEIPKTITGSETNLLFFWETHGTKNYFTSVAHPNLFIATKQDYWVCLAGGPPSITDFQILENQA
notes: also called rhlL-1α
Regarding B1, the Kd (usually a measure of binding affinity in units of concentration) came to 547 nM; the koff (commonly the first-order rate constant of dissociation) came out at 0.00145 s⁻¹; the kon (in general, the rate constant with which the complex forms) worked out at 2650 M⁻¹ s⁻¹.
